These results are taken from US20260250769, “METHODS FOR DETERMINING THE PRESENCE OR RISK OF DEVELOPING FACIOSCAPULOHUMERAL DYSTROPHY (FSHD)” (Fred Hutchinson Cancer Center, published 2026).

Data set [1] has as its target T1, DUX4-fl (Homo sapiens, UniProt Q9UBX2 SEQ:1-424). The data set is described as follows: EMSA; cold self competitor inhibits binding. The settings on record: tags: from pCS2-DUX4-fl, TNT SP6 wheat germ extract; label: 32P. The protocol: (§1) EMSA was performed with ³²P-labeled 31-bp oligonucleotides from endogenous genomic sequences containing the putative DUX4 binding site as probes (sequences below; only forward shown). Radiolabeled probes were incubated with in vitro translated protein generated from pCS2-DUX4-fl or pCS2-DUX4-s² vectors using the TNT SP6 Coupled Wheat Germ Extract System (Promega) according to manufacturer's instructions. To obtain supershift of protein-DNA complexes, 0.1 μg of E14-3 anti-DUX4 rabbit monoclonal antibody was added to the mixtures. For competition experiments, excess unlabeled probes of either wild-type or mutant sequences were included in the binding reaction. The gels were prepared and run as previously described (Knoepfler et al., Nucleic Acids Res 27:3752-3761 (1999)).

Data set [2] addresses T1, DUX4-fl. The data set can be described thus: competition; cold mutant does not compete with THE1D probe. As to conditions: tags: from pCS2-DUX4-fl, TNT SP6 wheat germ extract. Here is the method: as §1
In data set [3] the target is DUX4-s (Homo sapiens). The data set can be described thus: EMSA; supershift with E14-3. As to conditions: tags: from pCS2-DUX4-s2, TNT SP6 wheat germ extract; label: 32P. Here is the method:
as §1
A general note: Mobility shift assays separate free from complexed probe on a gel.

For data set [4], the target named is T1, DUX4-fl. The data set is described as follows: competition; cold mutant does not compete with CSF1R probe; core printed as … in legend. As to conditions: tags: from pCS2-DUX4-fl, TNT SP6 wheat germ extract. Here is the method: as §1
Data set [5] concerns the target T1, DUX4-fl. The data set can be described thus: EMSA; supershift with E14-3; cold self competitor reduces binding. As to conditions: tags: from pCS2-DUX4-fl, TNT SP6 wheat germ extract; label: 32P. The protocol:
as §1

Data set [6] addresses T1, DUX4-fl. The data set is described as follows: competition; cold mutant does not compete with TRIM48 probe. The settings on record: tags: from pCS2-DUX4-fl, TNT SP6 wheat germ extract. The protocol:
as §1

Positions count from the first letter of the chain named.

T1 sequence (Q9UBX2 whole entry): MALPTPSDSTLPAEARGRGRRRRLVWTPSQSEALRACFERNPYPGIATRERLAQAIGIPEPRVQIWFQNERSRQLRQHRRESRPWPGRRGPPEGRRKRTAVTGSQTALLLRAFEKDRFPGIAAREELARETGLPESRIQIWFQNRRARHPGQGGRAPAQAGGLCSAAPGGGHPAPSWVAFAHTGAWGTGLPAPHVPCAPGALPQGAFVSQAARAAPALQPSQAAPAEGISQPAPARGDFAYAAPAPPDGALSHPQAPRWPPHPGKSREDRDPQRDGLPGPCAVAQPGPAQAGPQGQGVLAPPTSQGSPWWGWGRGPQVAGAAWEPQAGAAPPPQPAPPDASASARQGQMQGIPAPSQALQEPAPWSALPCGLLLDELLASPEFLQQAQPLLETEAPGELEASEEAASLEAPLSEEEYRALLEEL
DUX4-s (Homo sapiens), sequence (Q6RFH8 other isoform, or with tags, fused parts or gaps): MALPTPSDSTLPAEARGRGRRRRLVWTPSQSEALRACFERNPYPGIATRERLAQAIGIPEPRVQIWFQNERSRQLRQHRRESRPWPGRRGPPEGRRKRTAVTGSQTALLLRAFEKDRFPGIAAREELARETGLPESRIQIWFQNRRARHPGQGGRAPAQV

B1: THE1D (dsDNA)
DNA 1: CCTGTGGGAGGTAATCCAATCATGGAGGCAG
DNA 2: CTGCCTCCATGATTGGATTACCTCCCACAGG
On to B1, for which, in data set [1], the binding result is “binds”.

B2: THE1Dmut (dsDNA)
DNA 1: B1 DNA 1 with A14C, A18T, C21G
DNA 2: B1 DNA 2 with G11C, T14A, T18G
With B2, the binding result in data set [2] is listed as “no binding”.

B3: CSF1R (dsDNA)
DNA 1: CCAGGTGGAGATAATTGAATCATGGGGGCAG
DNA 2: CTGCCCCCATGATTCAATTATCTCCACCTGG
For B3, the binding result in data set [1] and in data set [3] was “binds” each time.

B4: CSF1Rmut (dsDNA)
DNA 1: B3 DNA 1 with A14C, A18T, C21G
DNA 2: B3 DNA 2 with G11C, T14A, T18G
Regarding B4, the binding result in data set [4] is given as “no binding”.

B5: TRIM48 (dsDNA)
DNA 1: AGGAGTGATGATAATTTAATCAGCCGTGCAA
DNA 2: TTGCACGGCTGATTAAATTATCATCACTCCT
For the molecule B5, the binding result in data set [5] and in data set [3] was “binds” throughout.

B6: TRIM48mut (dsDNA)
DNA 1: B5 DNA 1 with A14C, A18T, C21G
DNA 2: B5 DNA 2 with G11C, T14A, T18G
Consider B6, for which the binding result in data set [6] is reported as “no binding”.
